Measured values as given in patent US20090232787A1, “CARCINOGEN DETOXIFICATION COMPOSITION AND METHOD” (Gene Research Lab. Co., Ltd., priority 2004, published 2009).

What was measured:
lung tumors = format: in vivo; conditions: GNMT-overexpressing transgenic mice, 375 μg B(a)P/7g body weight everyday IP for 15 days, sacrificed 78 weeks after the challenge
Protocol: • 1.1 pPEPCKex-flGNMT Plasmid Construction: pPEPCKex-flGNMT plasmid was prepared by using a pPEPCKex vector (concluding with phosphoenolpyruvate carboxykinase promoter (PEPCK, Valera et al., 1994), specific expressed in liver and kidney) and pSK-flGNMT (concluding with full length human GNMT cDNA) plasmid. Both plasmids were digested with Not I and Xho I. Insert was ligated to the vector and transformation into the competent cell (JM109). The clones were selected with ampicillin and screened with PCR to check pPEPCKex-flGNMT plasmid (FIG. 1). • 1.2 Production of Transgenic Mice: pPEPCKex-flGNMT plasmid was amplified and digested with Asc I to linear form (4.3 Kb). The linear form pPEPCKex-flGNMT gene was sent into FVB stain mice 0.5 days embryo by pronuclei microinjection. The embryos were sent into the foster mother (ICR strain mice). After 18-21 days, the mice were bred and screened with PCR to check the transgenic mice. • 1.3 Expression human GNMT in liver and kidney of transgenic mice: To check the PEPCK promoter specific expression organ, we used northern blot (FIG. 2) and western blot (FIG. 3). The human GNMT was specific expression in liver and kidney. […]

[1] = test system: Cytochrome p450 1A1 (CYP1A1); test: Aryl hydrocarbon hydroxylase (AHH) assay; conditions: cells treated with 9 μM BaP
Protocol: • 1.1 Cell lines and culture. Two HCC cell lines-Huh 7 (13) and HA22TNGH (14)—and one human hepatoblastoma cell line-Hep G2 (15)—were used in this study. Cells were cultured in Dulbecco's modified Eagle's medium (DMEM, GIBCO BRL, Grand Island, N.Y.) with 10% heat-inactivated fetal bovine serum (HyClone, Logan, Utah), penicillin (100 IU/ml), streptomycin (100 μg/ml), nonessential amino acids (0.1 mM), fungizone ([…]) and L-glutamine (2 mM) in a humidified incubator with 5% CO2. • 1.2 Construction of pGNMT, pGNMT-antisense and pGNMT-His-short plasmids. To construct plasmid-pGNMT containing the CMV promoter and GNMT cDNA fragment, we used plasmid-pFLAG-CMV-5 (Kodak, Rochester, N.Y.) as a vector and the pBluescript-GNMT-9-1-2 phagemid (8) as the PCR template for generating the insert. A 0.9 kb DNA fragment containing the GNMT cDNA sequence and restriction enzyme sites on both ends was amplified. All PCR conditions were as recommended by the manufacturer (Perkin Elmer, Norwalk, Conn.) with two exceptions: 2 mM of MgCl2 and 150 nM of primer. Twenty amplification cycles were performed using Perkin Elmer's Amplitaq Gold Taq DNA polymerase with DNA Thermal Cycler. […] RP concentration was measured with a BCA protein assay (Pierce, Rockford, Ill.); purity was tested by running samples on a 12.5% SDS-polyacrylamide mini-gel (Bio-Rad Laboratories, Richmond, Calif.). • 1.4 Transfection. […]

CYP1A1 gene = conditions: following BaP treatment; preliminary data

GNMT: Glycine N-methyltransferase (EC2.1.1.20), SEQ ID No: 1, SAM-dependent methyltransferase binding benzo(a)pyrene
mice that generated lung tumors (lung tumors): 30% | reduction in CYP1A1 enzyme activity in GNMT-expressing cells (SCG2-1-1) compared to SCG2-neg cells [1]: 45% | reduction of CYP1A1 gene expression in SCG2-1-1 cells compared to Hep G2 cells (CYP1A1 gene): approximately 20%
